Measured values as given in doi:10.1101/551788.

Target: Tom20.CIB.GFP (not stated | A. thaliana)
Test: light-induced recruitment to mitochondria

Substance | half-life of association with the OMM [min]
Cry2(1-531).L348F.mCh (from UniProt Q96524 1-531) (domain or fragment) | 32.8
Cry2(1-531).mCh (from UniProt Q96524 1-531) (domain or fragment) | 6.25
